Reference: patent US11505811B2, “Method for the preparation of 2,4-dihydroxybutyrate” (ADISSEO FRANCE S.A.S., priority 2012, dated 2022)

Legend:
CC(=O)C(=O)O = assay: OHB/pyruvate reductase assay, Oc-LdhA; format: biochemical, Oryctalagus cuniculus; conditions: other: pH 7, 37° C., 0.25 mM NADH
Source text: (§1) The genes coding for (L)-malate dehydrogenase in Escherichia coli, Ec-mdh (SEQ ID NO: 1), (D)-lactate dehydrogenase in E. coli, Ec-ldhA (SEQ ID NO: 3), (L)-lactate dehydrogenase of Lactococcus lactis, Ll-ldhA (SEQ ID NO: 5), (L)-lactate dehydrogenase of Bacillus subtilis, Bs-ldh (SEQ ID NO: 7), (L)-lactate dehydrogenase of Geobacillus stearothermophilus, Gs-ldh (SEQ ID NO: 9), the two isoforms of the (L)-lactate dehydrogenase of Oryctalagus cuniculus, Oc-ldhA (SEQ ID NO: 11 and SEQ ID NO: 13), were amplified by PCR using the high-fidelity polymerase Phusion™ (Fermentas) and the primers listed in Table 1. Genomic DNAs of E. coli MG1655, L. lactis IL1403, and B. subtilis strain 168 were used as the template. The genes Oc-ldhA, and Gs-ldh were codon-optimized for expression in E. coli and synthesized by MWG Eurofins. The primers introduced restriction sites (Table 1) upstream of the start codon and downstream of the stop codon, respectively, facilitating the ligation of the digested PCR products into the corresponding sites of the pET28a+ (Novagen) expression vector using T4 DNA ligase (Fermentas). Ligation products were transformed into E. coli DH5a cells (NEB). […]

O=C(O)C(=O)CCO = assay: OHB/pyruvate reductase assay, Oc-LdhA; format: biochemical, Oryctalagus cuniculus; conditions: other: pH 7, 37° C., 0.25 mM NADH
Source text: as §1

Oryctolagus cuniculus (printed: Oryctalagus cuniculus) (L)-lactate dehydrogenase Oc-LdhA, SEQ ID NO: 12 and SEQ ID NO: 14 (two isoforms) (Oryctolagus cuniculus)
Km (CC(=O)C(=O)O): 1.5 mM
Km (O=C(O)C(=O)CCO): 13 mM
